In patent US5831013, “Capsid polypeptides and use to inhibit viral packaging” (The Research Foundation of State University of New York, dated 1998):
Like-named read-outs stand apart in the source and are kept apart here.

How the values were obtained:
[1] = target: ScVL1 capsid protein Cap, full size (680 amino acids) (ScVL1 virus of Saccharomyces cerevisiae)
[2] = target: ScVLa capsid protein Cap, full size (697 amino acids) (ScVLa virus of Saccharomyces cerevisiae)
[3] = target: T1, ScVL1 capsid protein Cap, full size (680 amino acids) (ScVL1 virus of Saccharomyces cerevisiae); assay: cell-based or functional assay
T1 chain: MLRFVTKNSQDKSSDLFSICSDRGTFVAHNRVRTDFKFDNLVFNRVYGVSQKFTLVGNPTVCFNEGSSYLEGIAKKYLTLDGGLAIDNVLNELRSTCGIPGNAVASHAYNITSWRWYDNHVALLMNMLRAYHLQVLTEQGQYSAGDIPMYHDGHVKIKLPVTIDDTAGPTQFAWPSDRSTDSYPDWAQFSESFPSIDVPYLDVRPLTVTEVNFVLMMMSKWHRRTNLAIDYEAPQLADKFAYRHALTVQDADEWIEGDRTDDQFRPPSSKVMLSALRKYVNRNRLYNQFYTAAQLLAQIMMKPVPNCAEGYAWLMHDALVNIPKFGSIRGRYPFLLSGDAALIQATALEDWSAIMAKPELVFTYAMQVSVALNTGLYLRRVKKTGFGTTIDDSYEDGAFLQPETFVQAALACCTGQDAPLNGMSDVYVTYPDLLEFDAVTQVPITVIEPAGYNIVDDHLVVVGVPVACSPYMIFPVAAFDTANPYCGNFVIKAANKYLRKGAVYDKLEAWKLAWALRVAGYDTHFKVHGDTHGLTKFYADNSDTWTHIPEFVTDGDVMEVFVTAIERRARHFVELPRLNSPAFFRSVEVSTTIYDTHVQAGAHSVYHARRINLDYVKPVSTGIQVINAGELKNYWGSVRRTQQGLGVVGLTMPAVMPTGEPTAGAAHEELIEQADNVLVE

“L1 Cap N-terminal fragment of pGL1d2 (aa 1-603)” gave a Curing (%) of ScVL1 [1] of 100%.

Work on “La Cap N-terminal fragment of pGLa1d3 (aa 1-443)” yielded a Curing (%) of ScVLa [2] of 100%.

B1: L1 Cap N-terminal fragment of nonsense mutant pGL1m14 (Y485O, aa 1-484) (other)
chain: MLRFVTKNSQDKSSDLFSICSDRGTFVAHNRVRTDFKFDNLVFNRVYGVSQKFTLVGNPTVCFNEGSSYLEGIAKKYLTLDGGLAIDNVLNELRSTCGIPGNAVASHAYNITSWRWYDNHVALLMNMLRAYHLQVLTEQGQYSAGDIPMYHDGHVKIKLPVTIDDTAGPTQFAWPSDRSTDSYPDWAQFSESFPSIDVPYLDVRPLTVTEVNFVLMMMSKWHRRTNLAIDYEAPQLADKFAYRHALTVQDADEWIEGDRTDDQFRPPSSKVMLSALRKYVNRNRLYNQFYTAAQLLAQIMMKPVPNCAEGYAWLMHDALVNIPKFGSIRGRYPFLLSGDAALIQATALEDWSAIMAKPELVFTYAMQVSVALNTGLYLRRVKKTGFGTTIDDSYEDGAFLQPETFVQAALACCTGQDAPLNGMSDVYVTYPDLLEFDAVTQVPITVIEPAGYNIVDDHLVVVGVPVACSPYMIFPVAAFDTANP
In the case of B1, the “Curing (%) of ScVL1” value [3] is reported as < 5%.

B2: L1 Cap N-terminal fragment of nonsense mutant pGL1m15 (G501O, aa 1-500) (other)
chain: MLRFVTKNSQDKSSDLFSICSDRGTFVAHNRVRTDFKFDNLVFNRVYGVSQKFTLVGNPTVCFNEGSSYLEGIAKKYLTLDGGLAIDNVLNELRSTCGIPGNAVASHAYNITSWRWYDNHVALLMNMLRAYHLQVLTEQGQYSAGDIPMYHDGHVKIKLPVTIDDTAGPTQFAWPSDRSTDSYPDWAQFSESFPSIDVPYLDVRPLTVTEVNFVLMMMSKWHRRTNLAIDYEAPQLADKFAYRHALTVQDADEWIEGDRTDDQFRPPSSKVMLSALRKYVNRNRLYNQFYTAAQLLAQIMMKPVPNCAEGYAWLMHDALVNIPKFGSIRGRYPFLLSGDAALIQATALEDWSAIMAKPELVFTYAMQVSVALNTGLYLRRVKKTGFGTTIDDSYEDGAFLQPETFVQAALACCTGQDAPLNGMSDVYVTYPDLLEFDAVTQVPITVIEPAGYNIVDDHLVVVGVPVACSPYMIFPVAAFDTANPYCGNFVIKAANKYLRK
B2 was tested, and the “Curing (%) of ScVL1” value [3] was < 5%.

B3: L1 Cap N-terminal fragment of pGL1d4 (aa 1-435) (other)
chain: MLRFVTKNSQDKSSDLFSICSDRGTFVAHNRVRTDFKFDNLVFNRVYGVSQKFTLVGNPTVCFNEGSSYLEGIAKKYLTLDGGLAIDNVLNELRSTCGIPGNAVASHAYNITSWRWYDNHVALLMNMLRAYHLQVLTEQGQYSAGDIPMYHDGHVKIKLPVTIDDTAGPTQFAWPSDRSTDSYPDWAQFSESFPSIDVPYLDVRPLTVTEVNFVLMMMSKWHRRTNLAIDYEAPQLADKFAYRHALTVQDADEWIEGDRTDDQFRPPSSKVMLSALRKYVNRNRLYNQFYTAAQLLAQIMMKPVPNCAEGYAWLMHDALVNIPKFGSIRGRYPFLLSGDAALIQATALEDWSAIMAKPELVFTYAMQVSVALNTGLYLRRVKKTGFGTTIDDSYEDGAFLQPETFVQAALACCTGQDAPLNGMSDVYVTYPDLLE
B3 was tested, and the “Curing (%) of ScVL1” value [3] was < 5%.

B4: L1 Cap N-terminal fragment of nonsense mutant pGL1m13 (Q10O, aa 1-9) (peptide)
chain: MLRFVTKNS
B4 was tested, and the “Curing (%) of ScVL1” value [3] was < 5%.

B5: L1 Cap N-terminal fragment of pGL1d5 (aa 1-433) (other)
chain: MLRFVTKNSQDKSSDLFSICSDRGTFVAHNRVRTDFKFDNLVFNRVYGVSQKFTLVGNPTVCFNEGSSYLEGIAKKYLTLDGGLAIDNVLNELRSTCGIPGNAVASHAYNITSWRWYDNHVALLMNMLRAYHLQVLTEQGQYSAGDIPMYHDGHVKIKLPVTIDDTAGPTQFAWPSDRSTDSYPDWAQFSESFPSIDVPYLDVRPLTVTEVNFVLMMMSKWHRRTNLAIDYEAPQLADKFAYRHALTVQDADEWIEGDRTDDQFRPPSSKVMLSALRKYVNRNRLYNQFYTAAQLLAQIMMKPVPNCAEGYAWLMHDALVNIPKFGSIRGRYPFLLSGDAALIQATALEDWSAIMAKPELVFTYAMQVSVALNTGLYLRRVKKTGFGTTIDDSYEDGAFLQPETFVQAALACCTGQDAPLNGMSDVYVTYPDL
For B5, the “Curing (%) of ScVL1” value [3] was < 5%.

B6: L1 Cap N-terminal fragment of nonsense mutant pGL1m12 (E435O, aa 1-434) (other)
chain: MLRFVTKNSQDKSSDLFSICSDRGTFVAHNRVRTDFKFDNLVFNRVYGVSQKFTLVGNPTVCFNEGSSYLEGIAKKYLTLDGGLAIDNVLNELRSTCGIPGNAVASHAYNITSWRWYDNHVALLMNMLRAYHLQVLTEQGQYSAGDIPMYHDGHVKIKLPVTIDDTAGPTQFAWPSDRSTDSYPDWAQFSESFPSIDVPYLDVRPLTVTEVNFVLMMMSKWHRRTNLAIDYEAPQLADKFAYRHALTVQDADEWIEGDRTDDQFRPPSSKVMLSALRKYVNRNRLYNQFYTAAQLLAQIMMKPVPNCAEGYAWLMHDALVNIPKFGSIRGRYPFLLSGDAALIQATALEDWSAIMAKPELVFTYAMQVSVALNTGLYLRRVKKTGFGTTIDDSYEDGAFLQPETFVQAALACCTGQDAPLNGMSDVYVTYPDLL
With B6 the “Curing (%) of ScVL1” value [3] was < 5%.
